Assay results: the NTF2 design screens of Basanta et al. (2020)

Test: protease stability score; higher = more stable; yeast display proteolysis, trypsin and chymotrypsin;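 note: relative to predicted unfolded state with 0 unfolded-like and 1 meaning tenfold more protease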

Sequence | protease stability score
REEEEHLERVMSLILLIMSTGDFKTLSELFDPHARLRVGDKHLIGWSFVADWIVKFKNMQLRHHRRHVVNGVVEVEDEFRVGDKRFTLRLLFLVVDGVVKEVHIEIEDR | 0.833
REEEEHLKKFIEDHIRDLRTGDEQKVADQADPHVRTRFNGVDYHGREDHMKLMKHIRFEEMRIEDVKVQGDKAHIDSIITIEVDGQRETIKVHIIIVKIDGRWLLKQSHFN | 0.396
REEEEISKNIAELFEHTLRTGDEKLFLKLADPHVKNEQGEFDSVGREEWHRQFREILNKWGVDRIHSQERRFTDYDGRLEMHVEMRFNGKRVEVRMRVEKYDGRWILTELHIRIE | 0.655
REEEELLKKLADHWWENVRTGDERRMRELFDPNTQFVIEVGDKKFTRHGRDELVHSLEHARIHDFHIKDQRPQGDFIEVEGEIDGEIDGRRFRTDVRVWIVIVNGRLKQIHIHVG | 1.15
REEEELMKEIARRVIESHYTGDEDWWLELADPNVQVHVGDKRKVGREHALHLLHIFHKHLGVDHLHLRHVHVQGDWIEIEMDLNINGKIREMRVFVTVIDGRLDSINIDIK | 1.27
REEEENMRHFYKLMEHSLHTGDEDTLRRLFDPDARILIDGREHHGMEFILQLLHHIRLRVHDTKIEDIEHQGEWLHMHTRIDIYYNVDGQEVRVDTNVRLHAHKVDGRWFVRSYERG | 0.748
REEEEQLKHFIEHRLHNFLTGNEERLHHLADPNMRIDINGKELHGREAYIYEFNRLGWEIKHIDIEHLEVQGDKVDVDLRFKGHIDGKTRHIKSKLIVLKVDGKWFDKDYFII | 1.13
REEEERLKDLERVMRELWRTGDEREMSRNADPHVKLSVGDKEFHGRELFTKWASRVDHYDHLIIRDIETQGDKVRMYVETEMDIDGKDVKTESFILAVKIDGRWILRSLELR | 0.387
REEEERVEHLARLVFRALMTGDEDEYKHLADPDDRLILVINGRRQEFHGMEVVLEWLRHLLKEIRIHHSHIHDVKVIGDKVDFDTSVDVEYNGQRHWRKMRVIIIIVNGRYRSVEIILE | 2.26
REEEETLDRAIREMLRNMRTGDEHRMRELMDPNVRAHINGREIHGREEVVRHLVEWLKRVDHIEFKLEHQVVYGEKIDLDTRVTIRVNGVELRHKTHQRVHKIDGKWVLDELEIS | 2.05
REEEEVVREIARRVIKSWITGNEHDMQEFADPHVRIFIGDKEIIGMEILNEILHRIKNITIRINMRHVDVQGDKVDLEGELEIRVNGQTERHDSRHHFDVVNGRIKIIEIQWD | 0.918
REEEEYRHHVLRRWLEIWETGDEEAEAKNVDPNARMHVNGVDLHGRETIIHFLEEYMRKVKGVQERNDKVHLQGEFTHLTGRVLINGRWKEVTIQLLIINGRHHYLRIIIE | 0.898
REEEHAMKSMIDLWIESMNTGDERSISEMADPNAKNRVGDKTFVGMELLSHILFKLVKELGVRIEDHKIHDIKVQGDKIVSHVRLHLKYGDKEEDHETIIYTRKINGRWLIERVEVI | 1.53
REEEHHLEKLARHIVHAILTGDERYLEKLMDPNTRVEIIDGEYRIERHGMHNIVHLLLEIRIHHFEIKRITTYNGQVDIDGEIDGEYGDKRDNRHVEIRFHFVNGRTKSFKVTWR | 1.31
REEEKDEERMVHELMEWHRTGDEKTLNELLDPNARFIINGKHIHGREVFNEEVKRLGFRIEEYHLRRVRIYDGRIEFETEIDGEVNGRRLHIETRFHAIKINGQWRLKHIEFH | 2.5
REEEKDIRDVLKLWKDISRTGDEHLIRRLVDPNARLNFNGREIHGREDVAEFLLRRWRQIDHLEIIDRDVRYQGDKVEFHGHVREKIGDKEETYELEFILVKIDGRWLVHSLHVH | 2.43
REEEKFAIHLVRRVVEYLLTGDEDSLKRLADPNTRIHINGVDRHGMEESYKWWKSEIDHLRHHIVITRMRFIDGVIEVDIRLHSDFDGVRFSWNVHLILLVVDGRIKTDKMIVE | 1.26
REEEKIYHHLTEMWYEMLHTGNEEERERLFDPNTRVNIGDYHFHGREKLLEAYRRWRHMLGIKHYEVDRVEVIGDKVFSQGHSKAENHRLDVRIVIVVWNGRLKETSVDIH | 1.04

Sequence | protease stability score
REEEKKLEDIVKKLLEAWETGDEDFLIEMADPDTRVEFEAENHHEHRVGWENMIHWTHEVHRHLGVKHLMIDSSTIIGEKVHIDGTMNINGREVKIRIIIEIVDGRVKKIKIIVH | 1.71
REEEKLWEHIFHLFIEDVLTGDEDRLREMLDPNVRLKAEGHDDHGRESMVKFNEELHKEIRFERIHLRRIHIIDGVSFMDVQIDGTVNGKHRSLESEIRIYIVDGRIRMVELRIR | 1.25
REEEKMFTMILEIIKHSLVTGDEDLTRNLVDPNMRLEINGQEVHGREEILRVLLELRVKEMHIDDVKFQGDKAEIDGTLDIEWNGQEDHLKVEIIFRKINGRWHIESIRLE | 1.48
REEEKMMRHIFRLDVILELTGDEEKWKHYADPNVRVIFIFENVHIEHHGRDAWVRLLHHMRIDRIIIHRLRVFENHNQADTFVKGEINGRELDMETHFYVLVINGRRKEVELEVR | 1.46
REEEKNLHTQMRLFAHALWTGDEDEIHRNMDPHVRSDIDGRELVGREWMIRLIEELRIRHVHIRHFHLQGDKLHLDTISHVIVNGVEVDMHTRVDVEKVNGRWLITSIRFD | 1.18
REEEQHAERFTKLFIEAFETGDWKELSRLLDPHARMEWNGRVHHGMEQIVEVLLKQFHDLGFRIEHVRIHDIRVQGEKIKVDVDIDGIVDGRREHWKVTLIILKVNGRWLTKEIEYR | 1.31
REEEREAKEWLERLIRDIITGDEDKMTNLIDPNVRILINGKHIHGWELYFKIWIDHVERFPNMRVDYHVKSITFFNGRIIMYYEERIHINGKEIRVDVHIQALKVNGRWILESVHNE | 1.54
REEERLTRHFAHRLFHSLMTGDEDELTELADPNARSIVDGRTVHGRETMSRIIHHKVRELGVDHNTIEHIEFQGNYVHVHMRIEVGDKTYTSIIHIEKVDGRWLVRSVNLL | 0.491
REEESEWKKFFEDLLRSLVTGDESSLSKMIDPHARLDVDGREFHGREHMAHWIVRTLNEHGITIKIEIKDFRLVGDKVHVDGHEDIEVGDKRHERRLHIILLKFNGRWVIKELKVE | 2.67
REENEMLKRAIKHILRVLETGDFEDLSKMFDPHARLFFNGVLFMGRENVEHHWERERERYKNLRLHFRHVNYHVQGDKVFVEYHVDVTVGDKKWEVHFHFIVIKINGQWYNEDLEIEIR | 1.66
REIEEDVEKALRLWEKTMFTGDEDRFMELADPHTRVTFNGREVIGMEIWKTLVEELGIDVIKDTRIHDVKVQGNKVHVDSHRHVHFNGKTVEIRTRLIATKFDGRWHIESIRFQ | 0.803
REIEKSLEESLKMWLENLVTGDERQLSELVDPDAKLEVGDKHHVGMETISHMIRHMRIESIEIKSIRIFDGRAEIHAYVLGNINGQRKDLNEKLHWEKINGRWEVRKILLE | 2.13
REKDDEMDRIVKIFYHVLRTGNEELLDTLIDPDTRIEVDINGVNYISHGREEWKRVIEELLRHMRINSIIIHDIRYQGNKATIDNHADLEFDGVRFEMRSELRIIVVNGRYRSFSRIIR | 1.13
REKDDLLHEFTERYMTAIETGDEETLEKLMDPDVKLHVGEYHDHGREDVSEWLRTHLEQWRIERIEIQHVDLQGDKLRVDLIVHARVGDKRIILHTILISRKINGRWHIKFFSMR | 1.3
RELDEMAERAVEWYFRVLRTGDEHTLSRLLDPNVRVVFDGRTYIGREWYREHEEKLGVDHMRLDVKSVRNINGRIEVDVRVNREVNGQEIRIEMRMTSEKVDGRWEVKTVEEK | 1.3
RELEESSKFFLKLIIEAFLTGDERTNSELADPNVRIHIGEFHYHGREEFSKLMEELVKRVKNATVINDIDHIEVQGEKIKMDGRLILIYNGRIFETRTSLIVVKIDGRWLIESVHVK | 1.48
RELERDSTELIKMWLRHLETGDEDVISELIDPNVKVDINGQDHHGREDATEWAMRVKNMTIIVRHLEFQGEKAFVTTEVRVNGKTVHVIVRSLKVDGRWRLESLEVHSE | 1.59
REQEEFSENAIKLWEHLTKTGDEEKMTKLMDPHARLDVNGQQLVGRELIEKIIREILKRIDHLDHIEFEHIDNQGEKVIIHSRVIFIFNGRKIDTEVHVIMIKINGQWRIESMTEK | 1.18
